Key:
[1] = biological target: Sox2;Pax6 (Mus musculus (B6);Mus musculus (B6), UniProt P48432;P63015 1-319;1-422, |); experiment: EMSA; supershift with anti-Pax6; EMSA: 20 ng GST-fusion protein, 20 mM HEPES pH 7.8, 45 mM KCl, 10 mM NaCl, 1 mM EDTA, 1 mM DTT, 10% glycerol, 0.2 ug/uL BSA, 0.1% NP-40, 50 ng poly-dIdC; RT 30; conditions: protein: recombinant;recombinant; tags: GST (N-terminal, pGEX-6P-1);GST (N-terminal, pGEX-6P-1); copies: 1;1; label: 32P
[2] = biological target: Sox2;Brn2 (Mus musculus (B6);Mus musculus (B6), UniProt P48432;P31360 1-319;1-445, |); experiment: EMSA; supershift with anti-Brn2; EMSA: 20 ng GST-fusion protein, 20 mM HEPES pH 7.8, 45 mM KCl, 10 mM NaCl, 1 mM EDTA, 1 mM DTT, 10% glycerol, 0.2 ug/uL BSA, 0.1% NP-40, 50 ng poly-dIdC; RT 30; conditions: protein: recombinant;recombinant; tags: GST (N-terminal, pGEX-6P-1);GST (N-terminal, pGEX-6P-1); copies: 1;1; label: 32P
Chain of Sox2;Brn2 (P48432 whole entry, chain 1 of 2, the tested form may be a part): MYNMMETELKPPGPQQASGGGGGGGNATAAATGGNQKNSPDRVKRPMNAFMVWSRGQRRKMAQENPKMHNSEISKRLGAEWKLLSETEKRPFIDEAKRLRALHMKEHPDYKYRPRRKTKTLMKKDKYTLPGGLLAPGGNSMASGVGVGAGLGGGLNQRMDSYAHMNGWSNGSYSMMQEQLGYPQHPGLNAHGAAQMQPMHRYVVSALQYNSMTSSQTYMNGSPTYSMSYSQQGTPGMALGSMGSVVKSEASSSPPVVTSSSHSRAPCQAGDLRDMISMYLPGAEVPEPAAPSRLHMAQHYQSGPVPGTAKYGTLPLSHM
Chain of Sox2;Brn2 (P31360 whole entry, chain 2 of 2, the tested form may be a part): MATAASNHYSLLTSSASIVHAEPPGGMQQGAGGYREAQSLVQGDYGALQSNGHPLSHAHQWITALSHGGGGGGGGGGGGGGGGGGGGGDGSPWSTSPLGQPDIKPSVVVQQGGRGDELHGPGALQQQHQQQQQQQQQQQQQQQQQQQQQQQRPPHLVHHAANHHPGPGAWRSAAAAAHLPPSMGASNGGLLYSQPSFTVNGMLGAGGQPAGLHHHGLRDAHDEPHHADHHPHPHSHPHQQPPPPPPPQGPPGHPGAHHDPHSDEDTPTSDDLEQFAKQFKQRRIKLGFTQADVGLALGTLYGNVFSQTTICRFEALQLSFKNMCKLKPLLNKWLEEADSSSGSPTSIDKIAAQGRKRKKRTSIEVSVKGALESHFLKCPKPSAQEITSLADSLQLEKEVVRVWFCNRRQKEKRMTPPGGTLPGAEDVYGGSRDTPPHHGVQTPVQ

Chain of Sox2;Pax6 (P48432 whole entry, chain 1 of 2, the tested form may be a part): as the sequence (P48432 whole entry, chain 1 of 2, the tested form may be a part) above
Chain of Sox2;Pax6 (P63015 whole entry, chain 2 of 2, the tested form may be a part): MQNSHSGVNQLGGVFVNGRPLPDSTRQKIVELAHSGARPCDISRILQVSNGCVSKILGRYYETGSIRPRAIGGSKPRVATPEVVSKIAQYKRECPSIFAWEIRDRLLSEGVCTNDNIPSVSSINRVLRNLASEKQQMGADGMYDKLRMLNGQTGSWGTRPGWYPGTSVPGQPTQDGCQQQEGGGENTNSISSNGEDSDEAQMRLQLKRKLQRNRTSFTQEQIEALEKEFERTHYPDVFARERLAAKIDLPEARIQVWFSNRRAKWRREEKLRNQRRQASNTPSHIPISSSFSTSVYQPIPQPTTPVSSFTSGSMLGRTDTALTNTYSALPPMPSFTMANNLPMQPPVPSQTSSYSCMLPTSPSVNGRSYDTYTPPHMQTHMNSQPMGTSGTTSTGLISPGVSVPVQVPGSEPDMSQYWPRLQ

Row | Binder | binding result [1] | binding result [2]
1 | Sox2-Pax6 consensus probe (dsDNA) DNA 1: GGGAAATATTCATTGTTGTTGCTCACCTACCATGGA DNA 2: TCCATGGTAGGTGAGCAACAACAATGAATATTTCCC | binds | 
2 | Sox2-Brn2 consensus probe (dsDNA) DNA 1: GGGTAGTGTGGACAAAAGGCAATAATTAGCATGAGAATC DNA 2: GATTCTCATGCTAATTATTGCCTTTTGTCCACACTACCC |  | binds
